The values below come from PMC8490154, “Mass-sensitive particle tracking to elucidate the membrane-associated MinDE reaction cycle” (Nature Methods, 2021).

Several values for one entry are separate records, joined by “and”; a condition that tells them apart may be missing. Equal values may be shown once. Read-outs that look alike come from different tables or passages of the source.

Data set [1] deals with MinD (Escherichia coli) (UniProt P0AEZ3). As to the kind of experiment: mass-sensitive particle tracking (MSPT, iSCAT) on a supported lipid bilayer; MinD or MinD D40A alone, 50-200 nM, 0.5 mM ATP, Min buffer, SLB of 70 mol% DOPC / 30 mol% DOPG, room temperature (23 ± 2 °C); particle densities 0.03-0.8 µm^-2; monomers (33 kDa) not quantitatively detectable.
Data set [2] has the same target. The data set is described as above. This is another data set of the same source.
Data set [3] deals with the molecule itself. Described as above.
Data set [4] deals with the molecule itself. The data set can be described thus: mass-sensitive particle tracking (MSPT, iSCAT) on a supported lipid bilayer; co-reconstitution of equimolar MinD and MinE, 50-200 nM each, 0.5 mM ATP, Min buffer, SLB of 70 mol% DOPC / 30 mol% DOPG, room temperature; particle densities 0.1-0.8 µm^-2.

On to “MinD (from UniProt P0AEZ3 1-270) (natural protein)”, for which the stoichiometry N is 2 in data set [1]; 3 and 4 in data set [2].

B1: MinD D40A (natural protein, Escherichia coli, UniProt P0AEZ3 1-270, looked up)
chain: MARIIVVTSGKGGVGKTTSSAAIATGLAQKGKKTVVIDFAIGLRNLDLIMGCERRVVYDFVNVIQGDATLNQALIKDKRTENLYILPASQTRDKDALTREGVAKVLDDLKAMDFEFIVCDSPAGIETGALMALYFADEAIITTNPEVSSVRDSDRILGILASKSRRAENGEEPIKEHLLLTRYNPGRVSRGDMLSMEDVLEILRIKLVGVIPEDQSVLRASNQGEPVILDINADAGKAYADTVERLLGEERPFRFIEEEKKGFLKRLFGG
notes: ATPase MinD of the Escherichia coli Min system with D40A (impaired ATP hydrolysis); A purification tag is probably present (surmise); also called D40A mutant; MinD mutant (D40A)
In the case of B1, the “stoichiometry N” value in data set [3] was 2 and 4.

B2: MinE (natural protein, Escherichia coli, UniProt P0A734 1-88, looked up)
chain: MALLDFFLSRKKNTANIAKERLQIIVAERRRSDAEPHYLPQLRKDILEVICKYVQIDPEMVTVQLEQKDGDISILELNVTLPEAEELK
notes: MinE of the Escherichia coli Min system; A purification tag is probably present (surmise)
Turning to B2, the binding result in data set [4] is reported as “binds”.
